Reference: article PMC9287727, “Structural snapshots of nitrosoglutathione binding and reactivity underlying S-nitrosylation of photosynthetic GAPDH” (Redox Biology, 2022)

Key:
[1] = molecular target: the molecule itself; assay: crystal structure; CrGAPA with 1 mM NADP+ or NAD+, hanging drop at 293 K, 1.2-1.6 M (NH4)2SO4, 0.1 M Tris-HCl pH 7.5-8.5; dimer in the asymmetric unit, tetramer by a crystallographic 2-fold axis
[2] = molecular target: the molecule itself; assay: crystal structure; oxidized NADP+-CrGapA, hanging drop at 293 K, 1.2-1.6 M (NH4)2SO4, 0.1 M Bicine pH 9.5; dimer in the asymmetric unit, tetramer by a crystallographic 2-fold axis

| Protein | stoichiometry N [1] | stoichiometry N [2] |
| --- | --- | --- |
| photosynthetic glyceraldehyde-3-phosphate dehydrogenase from Chlamydomonas reinhardtii (CrGAPA) (enzyme, UniProt P50362 35-374, looked up, Glyceraldehyde-3-phosphate dehydrogenase A, chloroplastic (GAPA), Chlamydomonas reinhardtii; mature protein; Homotetramer of A-type subunits; also called NADP-CrGAPA; NAD-CrGAPA) EKKIRVAINGFGRIGRNFLRCWHGRQNTLLDVVAINDSGGVKQASHLLKYDSTLGTFAADVKIVDDSHISVDGKQIKIVSSRDPLQLPWKEMNIDLVIEGTGVFIDKVGAGKHIQAGASKVLITAPAKDKDIPTFVVGVNEGDYKHEYPIISNASCTTNCLAPFVKVLEQKFGIVKGTMTTTHSYTGDQRLLDASHRDLRRARAAALNIVPTTTGAAKAVSLVLPSLKGKLNGIALRVPTPTVSVVDLVVQVEKKTFAEEVNAAFREAANGPMKGVLHVEDAPLVSIDFKCTDQSTSIDASLTMVMGDDMVKVVAWYDNEWGYSQRVVDLAEVTAKKWVA | 4 |  |
| oxidized NADP+-CrGAPA (catalytic Cys149 oxidized to sulphinate/sulphonate) (enzyme, Chlamydomonas reinhardtii, UniProt P50362 35-374, looked up, Cys149 oxidized to sulphinate/sulphonate (-SO2-/-SO3-), Glyceraldehyde-3-phosphate dehydrogenase A, chloroplastic (GAPA), Chlamydomonas reinhardtii; mature protein; Same construct as m1; Cys149 found oxidized in crystals grown in 0.1 M Bicine pH 9.5 with NADP+) EKKIRVAINGFGRIGRNFLRCWHGRQNTLLDVVAINDSGGVKQASHLLKYDSTLGTFAADVKIVDDSHISVDGKQIKIVSSRDPLQLPWKEMNIDLVIEGTGVFIDKVGAGKHIQAGASKVLITAPAKDKDIPTFVVGVNEGDYKHEYPIISNASCTTNCLAPFVKVLEQKFGIVKGTMTTTHSYTGDQRLLDASHRDLRRARAAALNIVPTTTGAAKAVSLVLPSLKGKLNGIALRVPTPTVSVVDLVVQVEKKTFAEEVNAAFREAANGPMKGVLHVEDAPLVSIDFKCTDQSTSIDASLTMVMGDDMVKVVAWYDNEWGYSQRVVDLAEVTAKKWVA |  | 4 |
